Data: US20240199746A1 (published 2024)

T1: Ax1 protein, extracellular domain (human, UniProt P30530 26-451)
T1 construct: extracellular domain; also called Axl; Ark
T1 sequence (looked up): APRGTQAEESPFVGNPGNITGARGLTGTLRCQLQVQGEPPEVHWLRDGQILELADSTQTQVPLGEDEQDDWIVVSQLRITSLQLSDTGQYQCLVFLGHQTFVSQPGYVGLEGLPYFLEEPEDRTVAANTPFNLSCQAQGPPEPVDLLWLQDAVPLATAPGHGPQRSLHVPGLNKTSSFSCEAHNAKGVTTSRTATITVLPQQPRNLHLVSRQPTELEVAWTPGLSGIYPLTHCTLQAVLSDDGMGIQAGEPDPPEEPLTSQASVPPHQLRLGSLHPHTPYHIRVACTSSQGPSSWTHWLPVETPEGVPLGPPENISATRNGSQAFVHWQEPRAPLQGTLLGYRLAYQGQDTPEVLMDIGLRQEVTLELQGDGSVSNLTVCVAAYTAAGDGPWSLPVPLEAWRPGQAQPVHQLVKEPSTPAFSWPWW


Key:
[1] = biological target: T1, Ax1 protein, extracellular domain; experiment: ELISA, mutant diluted 1:3
Summary of the method: (§1)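 Single-point-mutant antibody library from Comprehensive Positional Evolution, screened by ELISA for selective binding to the Ax1 extracellular domain at pH 6.0 over pH 7.4. Mutant antibodies tested at 1:3 and 1:9 dilutions.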

[2] = biological target: T1, Ax1 protein, extracellular domain; experiment: ELISA, mutant diluted 1:9
Summary of the method: as §1

Affinity ELISA CPE mutant ratio (1:3, pH 6.0/7.4) [1]	Affinity ELISA CPE mutant ratio (1:9, pH 6.0/7.4) [2]	Binder
3.95	2.89	LC-P095D (antibody, V domains shown, CPE single point mutant) VH: EVQLVQSGAEVKKPGATVKISCKVSGYSFTGHTMNWIRQPPGKGLEWIGLIKPSNGGTSYNQKFKGRVTISADKSISTAYLQWSSLKASDTAMYYCAHGHYESYFAMDYWGQGTLVTVSS VL: DIQMTQSPSSLSASVGDRVTITCKASQDVSSAVAWYQQKPGQAPRLLIYWASTRHTGVPSRFSGSGSGTEFTLTISSLQPDDFATYYCQEHFSTDLTFGQGTKVEIK
2.5	2.09	LC-P095T (antibody, V domains shown, CPE single point mutant) VH: EVQLVQSGAEVKKPGATVKISCKVSGYSFTGHTMNWIRQPPGKGLEWIGLIKPSNGGTSYNQKFKGRVTISADKSISTAYLQWSSLKASDTAMYYCAHGHYESYFAMDYWGQGTLVTVSS VL: DIQMTQSPSSLSASVGDRVTITCKASQDVSSAVAWYQQKPGQAPRLLIYWASTRHTGVPSRFSGSGSGTEFTLTISSLQPDDFATYYCQEHFSTTLTFGQGTKVEIK
1.87	2.13	LC-P095V (antibody, V domains shown, CPE single point mutant) VH: EVQLVQSGAEVKKPGATVKISCKVSGYSFTGHTMNWIRQPPGKGLEWIGLIKPSNGGTSYNQKFKGRVTISADKSISTAYLQWSSLKASDTAMYYCAHGHYESYFAMDYWGQGTLVTVSS VL: DIQMTQSPSSLSASVGDRVTITCKASQDVSSAVAWYQQKPGQAPRLLIYWASTRHTGVPSRFSGSGSGTEFTLTISSLQPDDFATYYCQEHFSTVLTFGQGTKVEIK
7.12	7.51	LC-P095E (antibody, V domains shown, CPE single point mutant) VH: EVQLVQSGAEVKKPGATVKISCKVSGYSFTGHTMNWIRQPPGKGLEWIGLIKPSNGGTSYNQKFKGRVTISADKSISTAYLQWSSLKASDTAMYYCAHGHYESYFAMDYWGQGTLVTVSS VL: DIQMTQSPSSLSASVGDRVTITCKASQDVSSAVAWYQQKPGQAPRLLIYWASTRHTGVPSRFSGSGSGTEFTLTISSLQPDDFATYYCQEHFSTELTFGQGTKVEIK
2.5	2.75	LC-P095H (antibody, V domains shown, CPE single point mutant) VH: EVQLVQSGAEVKKPGATVKISCKVSGYSFTGHTMNWIRQPPGKGLEWIGLIKPSNGGTSYNQKFKGRVTISADKSISTAYLQWSSLKASDTAMYYCAHGHYESYFAMDYWGQGTLVTVSS VL: DIQMTQSPSSLSASVGDRVTITCKASQDVSSAVAWYQQKPGQAPRLLIYWASTRHTGVPSRFSGSGSGTEFTLTISSLQPDDFATYYCQEHFSTHLTFGQGTKVEIK
3.84	3.47	LC-P095K (antibody, V domains shown, CPE single point mutant) VH: EVQLVQSGAEVKKPGATVKISCKVSGYSFTGHTMNWIRQPPGKGLEWIGLIKPSNGGTSYNQKFKGRVTISADKSISTAYLQWSSLKASDTAMYYCAHGHYESYFAMDYWGQGTLVTVSS VL: DIQMTQSPSSLSASVGDRVTITCKASQDVSSAVAWYQQKPGQAPRLLIYWASTRHTGVPSRFSGSGSGTEFTLTISSLQPDDFATYYCQEHFSTKLTFGQGTKVEIK
2.84	3.51	LC-P095S (antibody, V domains shown, CPE single point mutant) VH: EVQLVQSGAEVKKPGATVKISCKVSGYSFTGHTMNWIRQPPGKGLEWIGLIKPSNGGTSYNQKFKGRVTISADKSISTAYLQWSSLKASDTAMYYCAHGHYESYFAMDYWGQGTLVTVSS VL: DIQMTQSPSSLSASVGDRVTITCKASQDVSSAVAWYQQKPGQAPRLLIYWASTRHTGVPSRFSGSGSGTEFTLTISSLQPDDFATYYCQEHFSTSLTFGQGTKVEIK
